Assay results taken from US7482004B2, “Inhibitors of placental growth factor for the treatment of pathological angiogenesis, pathological arteriogenesis, inflammation, tumor formation and/or vascular leakage” (Vlaams Interuniversitair Instituut voor Biotechnologie vzw, priority 2000, dated 2009).
Marks after values point to notes of the source that are not given here.

B1: PLGF: murine Placental Growth Factor (R&D) (protein, UniProt P49764 19-158, looked up)
Placenta growth factor: VHSQGALSAGNNSTEVEVVPFNEVWGRSYCRPMEKLVYILDEYPDEVSHIFSPSCVLLSRCSGCCGDEGLHCVPIKTANITMQILKIPPNRDPHFYVEMTFSQDVLCECRPILETTKAERRKTKGKRKRSRNSQTEEPHP

Experiments:
[1] = tested on: PLGF^+/+ endothelial cells; assay: Endothelial proliferation, PLGF+/+ cells; type: cell-based, mouse
Source text: (§1) Proliferation and survival of endothelial cells in response to VEGF were studied. […] PIGF was also found to modulate the mitogenic response to VEGF of smooth muscle cells, known to express VEGFR-1 and VEGFR-2 (C. L. Grosskreutz et al., 1999, Microvasc. Res. 58, 128-136). […] Thus, PIGF affected endothelial and smooth muscle cells only when they were stimulated with VEGF.
(§2) The data represent the mean±SD of nine to twelve experiments. *: p<0.05 versus control (vehicle). None of the antibodies affected baseline endothelial proliferation in the absence of VEGF (not shown). Ab: polyclonal antiserum; MoAb: monoclonal antibodies; bFGF: basic fibroblast growth factor.
(§3) Endothelial and smooth muscle cell culture: In order to obtain mouse capillary endothelial cells, anesthetized mice were injected s.c. with 500 μl of ice-cold matrigel containing bFGF (100 ng/ml) and heparin (100 μg/ml). After seven days, the matrigel pellet was dissected and enzymatically dispersed using 0.1% type II collagenase (Sigma, St. Louis, Mo.). Mouse endothelial cells were routinely cultured in T75 flasks coated with 0.1% gelatin in M131 medium supplemented with 5% MVGS (Gibco-BRL). Smooth muscle cells from mouse aorta were harvested and cultured as described (J. M. Herbert et al., 1997, FEBS Lett. 413, 401-404). […]

[2] = tested on: PLGF^−/− endothelial cells; assay: Endothelial proliferation, PLGF-/- cells; type: cell-based, mouse
Source text: as §1, §2, §3

[3] = tested on: PIGF^+/+ mice; assay: Matrigel assay, PIGF+/+ mice; type: in vivo, mouse; settings: subcutaneous matrigel with 100 ng/ml factor, seven days, n=15
Source text: (§4) Since VEGF plays a role in the above-mentioned phenotypes of angiogenesis, arteriogenesis and permeability, we investigated whether PIGF determined the responsiveness to VEGF. Subcutaneous implantation of matrigel (A. Passaniti et al., 1992, Lab. Invest. 67, 519-528) supplemented with VEGF165 (VEGF165) induced a strong angiogenic response in PIGF^+/+ but not in PIGF^−/− mice (hemoglobin content: 0.28±0.02 g/dl in PIGF^+/+ mice versus 0.02±0.02 g/dl in PIGF^−/− mice; n=15; p<0.05).
(§5) In contrast, basic fibroblast growth factor (bFGF) induced a similar angiogenic response in both genotypes (hemoglobin content: 0.28±0.02 g/dl in PIGF^+/+ mice versus 0.25±0.02 g/dl in PIGF^−/− mice; n=15; p=NS). These observations were confirmed by histological analysis and immunostaining for endothelial factor VIII-related antigen.
(§6) Matrigel assay: Ingrowth of capillaries in matrigel was performed as described (A. Passaniti et al., 1992, Lab. Invest. 67, 519-528). […] After seven days, the matrigel pellet with the neovessels was dissected for analysis of neovascularization: one part was homogenized to determine the hemoglobin content determined using Drabkin's reagent (Sigma, St. Quentin Fallavier, France), whereas the other part was fixed in 1% paraformaldehyde for histological analysis.

[4] = tested on: PIGF^−/− mice; assay: Matrigel assay, PIGF-/- mice; type: in vivo, mouse; settings: subcutaneous matrigel with 100 ng/ml factor, seven days, n=15
Source text: as §4, §5, §6

[5] = tested on: PIGF^+/+ and PIGF^−/− smooth muscle cells; assay: Smooth muscle cell proliferation; type: cell-based, mouse
Source text: as §1
(§7) Endothelial and smooth muscle cell culture: In order to obtain mouse capillary endothelial cells, anesthetized mice were injected s.c. with 500 μl of ice-cold matrigel containing bFGF (100 ng/ml) and heparin (100 μg/ml). After seven days, the matrigel pellet was dissected and enzymatically dispersed using 0.1% type II collagenase (Sigma, St. Louis, Mo.). Mouse endothelial cells were routinely cultured in T75 flasks coated with 0.1% gelatin in M131 medium supplemented with 5% MVGS (Gibco-BRL). Smooth muscle cells from mouse aorta were harvested and cultured as described (J. M. Herbert et al., 1997, FEBS Lett. 413, 401-404). Before stimulation, cells were starved in medium with 0.5% serum for 24 hours, after which they were stimulated with human VEGF165 and/or murine PIGF, or bFGF (all from R&D, Abingdon, UK) for 24 hours before analysis of the total cell number (proliferation) or the number of cells migrated after scrape-wounding (migration).

[6] = tested on: PIGF^+/+ and PIGF^−/− endothelial cells; assay: Endothelial cell migration (chemotaxis); type: cell-based, mouse; settings: for chemotaxis of endothelial cells: 100 ng/ml (VEGF165, PIGF), both genotypes
Protocol: (§8) The reduced response of PIGF^−/− endothelial cells to VEGF was confirmed using cultured primary PIGF^−/− endothelial cells. […] Thus, PIGF determines and synergistically amplifies the response to VEGF.
as §7

[7] = tested on: PIGF^+/+ and PIGF^−/− smooth muscle cells; assay: Smooth muscle cell migration; type: cell-based, mouse
Protocol: as §8, §7

[8] = tested on: PIGF^−/− fibroblasts; assay: VEGF production by PIGF-/- fibroblasts; type: cell-based; settings: 100 ng/ml for 48 hours
Protocol: (§9) Expression of VEGF by PIGF^−/− fibroblasts was increased by PIGF (VEGF production per 10^6 cells/ml/24 hours: 180±10 pg after treatment with vehicle versus 440±10 pg after treatment with 100 ng/ml PIGF for 48 hours; p<0.05 versus vehicle). Similar results were obtained for PIGF^+/+ fibroblasts (VEGF production per 10^6 cells/ml/24 hours: 200±8 pg after treatment with vehicle versus 430±5 pg after treatment with 100 ng/ml PIGF for 48 hours; p<0.05 versus vehicle).

[9] = tested on: PIGF^+/+ fibroblasts; assay: VEGF production by PIGF+/+ fibroblasts; type: cell-based; settings: 100 ng/ml for 48 hours
Protocol: as §9

[10] = tested on: PIGF^+/+ and PIGF^−/− endothelial cells; assay: Endothelial cell survival (apoptosis by serum deprivation or TNF-α); type: cell-based, mouse
Source text: as §1, §7

[11] = PIGF added to VEGF165, PIGF^−/− endothelial cells

Molecule | Endothelial proliferation ([1]; 50 ng/ml) | Endothelial proliferation ([2]; 50 ng/ml) | hemoglobin content (angiogenic response in matrigel) [3] [g/dL] | hemoglobin content (angiogenic response in matrigel) [4] [g/dL] | smooth muscle cell proliferation [5] | chemotaxis of endothelial cells [6] | migration of smooth muscle cells [7] | Endothelial proliferation ([1]; 100 ng/ml of each factor) | Endothelial proliferation ([2]; 100 ng/ml of each factor) | VEGF production per 10^6 cells/ml/24 hours [8] [pg] | VEGF production per 10^6 cells/ml/24 hours [9] [pg] | proliferation and survival response to VEGF165 [10, 11] | mitogenic and anti-apoptotic activity ([10]; factor alone, endothelial cells of either genotype) | migration of endothelial cells in response to VEGF165 [6, 11]
bFGF: basic fibroblast growth factor | 35 ± 2* | 35 ± 5* | 0.28 ± 0.02 | 0.25 ± 0.02 | comparable responses | both genotypes responded comparably | stimulated smooth muscle cells of both genotypes | – | – | – | – | – | – | –
B1 | – | – | – | – | ineffective by itself, restored the responsiveness of PIGF^−/− cells to VEGF | not chemotactic for endothelial cells of either genotype | rescued the impaired smooth muscle cell response to VEGF | 11 ± 1 | 11 ± 1 | 440±10 | 430±5 | rescued the impaired proliferation and survival response | not mitogenic nor anti-apoptotic | completely restored the impaired migration
